Target: vitamin K-dependent gamma-glutamyl carboxylase
Assay: inhibition constant of the propeptide toward the carboxylase; assay not described in the example

Substance: consensus propeptide sequence
- Ki: 0.43 nM

From patent US20030220247A1
